This is an account of results in the NTF2 design screens of Basanta et al. (2020).

The data set in a line: protease stability score; higher = more stable; yeast display proteolysis, trypsin and chymotrypsin.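 Also: relative to predicted unfolded state with 0 unfolded-like and 1 meaning tenfold more protease.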
On to “SEHDELVKRNLEEMIRAAETGDEEKLRQLMDPHVKLEVNGREFVGREHWERFFREVIHRFGVTRIEIILHRIHDIDGRIYVDGTEVYGDYFERSLWISLKVNGKWVITHQHIH”, for which the protease stability score came to 0.336.
Turning to “DEEEKTFEQIVRHLIDDLVTGDWEKLRDYFDPHVRVEIGDKRIVGRETLVDELSHWRVKHVRVELHDYRVINGRIEVHGSVDFRGNIDGRELRHSYETKIIFDKINGRWTLQSHHVL”, the protease stability score worked out at 1.21.
With “DERERDIREWMRIYIEMWETGDEDKLLTMIDPHYREETENEDIHGREQAHKKIKDIKERADHLHIRVHDVDIIDGVAVLDVEILIIIGDKVIRVRTTIIMRKINGKWFIERVHIK”, the protease stability score came out at 0.235.
For “SEEEERLRTIAEVLLHLLLTGDEEHLERLMDPHARYEQGDKHAIGREEVSHLFRRLLEHMRTREIHLHRWHSVNGVIYLDTRVIMEVNGRRIDTDTKVVVVVVDGKVRSMRNQFN” the value was 0.113; for “DEERRRAKKFLEQFVRNVETGDEELHYHLADPHMKVKIGDKEFHGMEHWIEWFHRFGFDHMEIELKDIRVQGDKAHIDGRLHVDYNGREHSTNVELVVRKVNGRWRLHELRVE”, 1.28; for “SEDEEEAHEFLKRLDNAHRTGDEDFVYEQMDPDVRIDINGREWHGRELAREYLSIYGIKVMEVKRVNVYDGRINVDGHVEFNGVRNKTTIIMQKIDGRWRVKSITIK”, 1.41.
Sequence “DEDEEISKRLLKQLIHMLKTGDEDLFWHLFDPDTRLIVGDKEDHGREELAKSIRELWHEIRIERLHLRSIHIIGDFIHLIVRLIRNVNGKKDDINLELIVIKVDGKWRFKEMEIQ” returned a protease stability score of 1.44.
Take “SEETKNLEHWAKRFEHALETGDEEVLTKLFDPNVRLHFNGVNIHGWELYRKYHQRVDHVHFRIRSVHVYDGRVDMHTEVENRQGDKSHRMDTRLFAIKVNGVWLIESFEVH”: the protease stability score came to 0.486.
As for “SDWEDLVRMAFHHFIHSMRTGDEDIIHQLLDPEVKINVGDKVIHGREQAFDYIHTLVNRADHIRFRLDHLDVQGDFIEIRTTVDLTYGDKHHRMEVTFFSRKVDGVWLIERVQIK”, the protease stability score came to 1.27.
Sequence “DELEKLLEHMLRLMNELLETGDWDWIMSLADPHTKFRLDINGVEHIDHGWEFLHKRIEELGADHREFRVRDIHTQGDKVHSEGEHLIRVNGKEIHIDVRIILLVVNGKVKEIEVRFK” came in with a protease stability score of 1.7.
The sequence “DEEHEELKKMVQHSLQLLMTGDEETIYHLLDPHAKVIINGVEYHGMSLSAKIMIKMARDLGVERFEVHLEHSRWFDGRVDVHISRRVNGQTEEVHINSKKINGRWHLKSIIFN” had a protease stability score of 1.06.
For “DDESEKAEHIYELLTRLMLTGDEQIIHKLMDPNVRLDVDGQEYHGREEVVSAWRRWLKEMGVDHLELKSVRLIFFNGQLHIHINGEVRFNGRKHRVHIRLVLRKIDGVWHLEELEVEYK” the value was 1.92.
“DEEEEALRLAFELIYTVLRTGDEEMWRRMADPDTKIDIGDKHFHGREHVEYVLRELHKRIDHIDHSHIDHVHVQGDKVHMDTTIVGTYDGQRTNLKTSFIVVKINGKWVMTSVRFR”: the protease stability score was found to be 1.38.
For “SELEEENRQALKESLREWETGDEKRLHENADPNARLQYGDKHYHGRENVSHMLTHIIEKFGIDHMRVRDFRVQGEKVETHVELRVGDKHLHIRIITMKVNGKWLFHSVHMHIE” the value was 0.997; for “DEDRERSKKEFDTLVKSELTGDEDSYRRMADPDTRLVVGDKEYHGRSAMRYFLRQVDHMEHVIIRRVEYQGDYAHFDITVHGDINGRRDTVHFHLVMYKIDGRWVVHELIIK”, 1.32; for “DEDEELYEKFTRDLNHSLMTGDEEVMRELADPHVKVDFNGRELHGWEAVTFLLRVMGIDHLELKDIRLQGDKARNYTILRFNGRTSTLIVVLHKVNGKWIIESFEYR”, 1.07.
Sequence “REEDKRAREDVEEWLRWFLTGDEEHLIKYADPNVRVDYGDKDIHGRNEATRIWREFLKHIRIHHVEVSHIKYVGEKVIVDVRLDGEINGRRVITHVEMEIIVVNGVLKSVHINSR” gave a protease stability score of 1.21.
“DKEDEERKRWEERMLQAITTGDEKTLEDLIDPNARYEINGRERHGREDLLKEFSKIKNVRIELRIHHVRFYDGQLEIDLRLILHIDGVDLRHETRIHAQKYDGVWYIKDITFH” showed a protease stability score of 1.02.
For “DVEQEISKTLVHLWVFALLTGDEHLIRKLADPHVRLDIDGVTIVGMDLVAKRITELRIERFTIEDVKFEIQGDKLISIMDTKVDGRIGDKRIETRVIILLIFEKIDGRWQLSTSSEEKR” the value was 1.16.
As to “SEEEEQVKEFIERWITMVKTGDEDFARKMADPNVRIEIGDKILHGRENMEHYMRRVIDEWRITHIHVNDSKVYGEYIVNEVHIHVRQGDKHHTINWELHVKKVNGRWRLQNVHFG”, the protease stability score came out at 2.24.
Take “SEEHRDIEIARHIWVDMLRTGDERKSKELADPHVQIHFENRIYHGREEWERMIHELIHTLGADHIEIRIHSIEVQGDKILVHFHIEFQVNGKYLRYDSRSVFIKINGQWHLRSVYII”: the protease stability score amounted to 1.25.
In turn, “DEDHRDVERLFQFVEELLHTGDERVNEELADPNVRIDVNGVERHGREDMVTWLRTIEERYKNATFHTHHIRIQGNKLKVNGRIRQGDWSSDVDILYVKINGRWFIRELKVK” registered a protease stability score of 1.49.
The figure for “REQEHEAKVAVDEWREDMETGDEHRLRELMDPDVRNIVGDKELHGREAVEFLITQIDHVKHIHVRHLDIQGDYIRFEGEINIHVNGRDRTLDVELYFIKINGRWHIHKLRFD” is 1.66; for “HELQEEATRFIKEFQEAVRTGDWRLWKKQLDPHVRLDIDGRHYHGRDIVLEFLRELEDKMGIERENVHIEHIDFQGDKVIVHSKEHGIVNGQRFDDKSSSIVLKINGQWTLHSVKIR” it is 1.19; for “SEDQEMSDHASSLLLHTMETGDFRLLHEFLDPNTRVSVNGRDVIGRDETVRHMIEHIKILGVSKVEARLHDVKLINGVAENDVEIDFNGRRIRVWWFVEKINGRWVITHMRVL” it is 1.47.
In turn, “DERQEEARKMFEDVYKAVWTGDEEELLRLMDPNVRIDIDGKILHGREALSEEWKRVDHVHHEHHEDMKVIGNKLHVRGHIEVDIDGRNLRYTIDNYLVVVNGRIKEVKEREV” yielded a protease stability score of 0.664.
The figure for “DEDREHVERIVDILIHSFKTGDESFLENYLDPNARLEVGDKTHHGREEVKKLVIRWWHELGIKHVHVDKKTTIDGRIIIHLTILFNGRRFETELIWVIVDGVINKVDIRIQER” is 1.45; for “SEEHRLMEEIARIFIHLFLTGDEELFKHLADPNTRTHIHYGDKHIDLHGREQTTKFWKEHLDRVDHVEIRINDIRSIGDKAHIDGVLIMLVNGREHTIHIEIIVVVINGKDTEFEFRLI” it is 0.966.
“HEDDHQAERITHITMHAILTGDWRRMEELLDPHYRIEFENHENIGRERVNKVLIDLGIRNEIEIKRIRFQGDFVEIDGKLKIDVGDKHIEIKVRLFYVKINGRWFHHHVDLR” had a protease stability score of 0.835.
Consider “SEEKKAWKLSLELHRRYVETGNEEDLIRFLDPHVRLEFNGQQYVGWEEVIRIMEELGFDVLKEIRLHSLDFQGEYVEVDGEVNGNINGRDRDHRIKFRMLKVDGKWLNHSVHVI”, for which the protease stability score came to 1.36.
For “DDEKEILRIAIEWSELVSNTGDEKTVEHLADPHVRIHYGDKDYVGRERMVEFVHRFKNLKLEIKDTDVQGEYIHVNGKMKFNGRTFDVEIVVFKIDGVWFEKSVEFK” the value was 1.38; for “SDEEHVSRIALEIDIWLKETGDEHLLRHYLDPDTRSHFNGRSVHGMDILIKILHHWRIHDLEVKRMHLVGDFVELDIRVDGTFNGRRINMEQIIHVEKIDGQWHLKEVRIH”, 1.54.
In turn, “SEEEKRARIASELLFEYLHTGDETLWEELMDPDVRLEINGRLFHGMDSFRHALEIWLKEIRLRDMRVRELHVIGDKIHVNSEDEVEVNGRVVNYESRLDMEKIDGRWRIKRTSIK” displayed a protease stability score of 1.19.
Consider “DEHTKLLEDLVKILLFIRKTGDEDTFNKLFDPNVRLVQGDKTYHGRETFNKTMREWRIHHFEIKRSHFIGEWAEIDGHEDGDINGQKIRTDVEIILIIIDGRIKSIEYRPL”, for which the protease stability score was determined as 0.929.
For the sequence “DEHKEEIKKFIEEWERSMITGDEDRLWELADPNTRLRQGEFEIHGMEILIEAEHRIVEKYKGLTIESIEMKHIDIINGVVVLYSKIRVRQGDKETEIFIIIYIIKINGQWRLHSLEIR”, the protease stability score was 1.34.
Sequence “TERDMFIETYIQIFIEHVRTGDEEALARLADPNVRIRVGDKHLHGWHELRRFFHEWRVKDLDFRDYRYYDGRVEIRGFERVEFNGQERDMEVIFHFVKINGRWYLEETEIR” gave a protease stability score of 2.32.
Turning to “SEERHAVERYTEELARAISTGDEEKRLELLDPHVRYLQGDKHIHGRDEVWRHEHRQMEDLGVTRIEMRIRHIRIFNGRVEIEGEVRIGEFEMHFIIYVLKIDGRWIITQEEYS”, the protease stability score was found to be 0.393.
In turn, “DEHQEEIKEMFRRMIHALETGDEDFFNHLADPHVLFHEHFNGRSFELHGREEFSKWLQSHREEIRLRNVHYHDIRIYNGVVHFDGRIVWHQGDKTIDRKVHWRTFVIDGRAKKVEIHVK” came in with a protease stability score of 0.621.
Take “TERDEHSRKMAHALVENFRTGDFETLHDLFDPRYLVILYIDGVDIRLHGREDFLRELKLINDRLGVDRVNLSVKHMEIQGDKVIMHFEEHQGDKTRRSEIRLEIINGRLRTSEWWIH”: the protease stability score stood at 0.788.
“DEEKEFAEEMTRIWIEFWKTGDEDDLSHMLDPNVRLIIIIGDKHIHMHGRERAIKEIRRLLHEWRIDDEHNEHIRYFNGKVDVRSRIHVTINGREHDHELVVRIFVVDGRVKSVSIEYR”: the protease stability score was determined as 2.52.
“SEDHEEVRKVTKVYLELFETGDEEELMKLADPEVRLHINGRDLHGREWMERAIRELLEYYGVKHIESWTIHDITIQGDKAVMDTSVKIRVNGREHELKMHIYSRKFDGRWFLTSVRFH” returned a protease stability score of 1.26.
The figure for “DEDEDEIKRIVEIIEHALRTGDEDLMRRLFDPNARLDINGREVHGRESFIEILHHWLHELRFKSLRLHQVHIVDGKAHVDTRVTYHINGVEIHIETERNMLKVDGRWFITHEHHR” is 0.025; for “DEAEEHMRRYSELMMKSFLTGDEHTLRKLADPHTKLIFNGKELHGREEVARVFTWSREELGVDHQDVRHVSVRLVDGRVHVDIILEVNVGDKRFQVHIHLTILKYDGRWFVESVHIEIR” it is 0.285; for “SEDDHELEHAARRHFRDFWTGDWKSISRFLDPDAKVELLVNGQHIEIHGREQIIEQMLRIPNLRFELKRVHTEIYGEKMHVHVRGVVEFDGVREDVVLIFIFEKFNGRWHISKESREFR” it is 0.35.
Turning to “DDDRRSLEDWIKISIESMKTGDEDEFEHLADPNPRMVVGDKHLVGRERAVHVFREWRVKHMTVKDHPIIDGRIEMDTRVTVHFNGRDIELELRIIIHKVNGKWLVEEIIIK”, the protease stability score came to 0.381.
In turn, “DESEESIRKVVKLLERAHRTGDEHEMKHLLDPNAKLIINGVELHGMELFEKLFKFERHHWRLHSMHVRHVDTQGDKANSDGEEDREFDGRREEVKTIIVMVKIDGRWHVKHIIFL” had a protease stability score of 1.08.
The sequence “HEHEEELHRVFKIFLELWTTGDEESMERLLDPNARWVELQGDKELTLIGRENARNRFKEIFDLAGFKYMHLDHEDIQGEKTRFEMTVEYDGRRTRMLLKIVVINGRVKVVKLEER” showed a protease stability score of 1.32.
